Patent publication US20050069907A1, “Methods for using double-mutant RNA polymerases with reduced discrimination between non-canonical and canonical nucleoside triphosphates” (priority 2002, published 2005)
Marks after values point to notes of the source that are not given here.

Key:
Assay type in all cases: biochemical
[1] = system: poly(dC); assay: Apparent miscoding on homopolymeric template poly(dC); conditions: poly(dC)
Experimental: (§1) Transcription reactions: Transcription reactions were carried out in 40 mM Tris-Cl pH 8.0, 15 mM MgCl2, and 5 mM DTT or 20 mM Manganese Citrate pH 8.0, 5 mM DTT at 37° C. Template, polymerase, and NTP concentrations were as indicated in the legends to the figures and tables. Relative activity determinations were made by taking 4 μl aliquots of reactions at 5, 10, and 20 minute time points and spotting on to DE81 filter paper. Unincorporated nucleotides were separated from incorporated nucleotides by washing the filter paper with 0.5 M KH2PO4 pH 7.0 and retained radioactive nucleotide was quantitated with a Molecular Dynamics phosphorimager. To evaluate rNTP/dNTP selectivity, reactions were run with 4 rNTPs and pT75 as template and α-P^32 rNTPs or α-P^32 dNTPs were used to label the transcripts. The relative rate of incorporation of an rNTP vs. its cognate dNTP was determined from the relative percentages of labeled rNTP vs. dNTP incorporated into DE81 retainable RNA at 5, 10, and 20 minute time points. Apparent miscoding frequencies were determined similarly, though in this instance the template was a single-stranded homopolymer and the reaction contained the complementary unlabeled rNTP, and complementary α-P^32 rNTP or one of the 3 non-complementary α-P^32 rNTPs. The relative percentages of labeled complementary vs. non-complementary rNTPs incorporated at 5, 10 and 20 minute time points gave an apparent miscoding rate. The rNTP/dNTP selectivity assay was used to test the following T7 RNAP mutants for effects on substrate discrimination: D537S, D537E, S539A, R5S1S, D552S, R627S, K631S, L637A, Y639S, Y639F, Y639A, G640A, F644A, G645A, Q649S, […], H811S, H811A, D812A, D812E, D812S, D812N, D879E+ΔF882+ΔA883, D879E+A881T+ΔA883, D879E+F884+A885, D879E+F882Y, D879E+ΔA883, D879E+F882W, D879E.
An increase in miscoding would be reflected in an increase in the rate of incorporation of the non-complementary NTP into RNA.
Numbers are averages from 2 experiments and reflect the ratio of the percentages of labeled rNTPs incorporated into RNA in reactions in which unlabeled complementary rNTPs were in great excess (0.5 mM) to labeled complementary or non-complementary rNTPs. Templates were at 0.1 mg/ml. Polymerases were at 10^−8 M in Mg^2+ buffer and 10^−7 M in Mn^2+ buffer.
*The upper number refers to results obtained in Mg^2+ buffer, the lower number to results in Mn^2+ buffer. n.d.: G640A, Y639A, Y639S were poorly active in Mn^2+ buffer, or on poly(dT) under all conditions.

[2] = system: supercoiled pT75; assay: rNTP/dNTP selectivity assay: labeled rNTP vs dNTP incorporation with 4 unlabeled rNTPs
Experimental: as §1
Relative selectivity of the mutant and W.T. polymerases for dNTPs and rNTPs: FIGS. 1-3 present a qualitative analysis of the structure of the transcripts produced by the W.T. and Y639F polymerases with various combinations of NTPs. […] To obtain a quantitative measure of the relative selectivity of the W.T. and mutant polymerases for dNTPs vs. rNTPs under conditions where transcript structure was not a complicating factor, reactions were carried out in which all 4 rNTPs were present but rNTPs or dNTPs were used to radiolabel the transcripts (see Table I).
Under these conditions the unlabeled rNTPs were present in vast excess relative to the labeling NTPs so labeling dNTPs are almost always incorporated adjacent to rNTPs and into transcripts of nearly uniform rNMP structure. […] This assay was used to screen our collection of T7 RNAP active site mutants for increased dNTP utilization. In this screen dATP incorporation in transcription reactions was examined with all of these mutants using supercoiled pT75 as the template, 4 cold rNTPs, and P32-rATP or P32-dATP to label. […] It has been reported that use of Mn^2+ instead of Mg^2+ decreases substrate discrimination and increases miscoding for a number of polymerases (Tabor and Richardson, 1989; Nivogi and Feldman, 1981). Therefore, the rNTP/dNTP selectivity of the mutant and W.T. enzymes were examined in Mn^2+-citrate buffer (Tabor and Richardson, 1989).

[3] = system: supercoiled pT75; assay: Relative transcription activity with different rNTP/dNTP mixes
Experimental: as §1
Relative activity of the W.T. and Y639F polymerases with different NTP combinations: The relative activities of the Y639F and W.T. polymerases with supercoiled pT75 as a template and various combinations of rNTPs/dNTPs were measured in both Mg^2+ and Mn^2+ buffers (see, Table II,).

In the case of “W.T.: wild-type T7 RNA polymerase [reference compound]”, the “Relative rate of incorporation GTP/ATP” value ([1]; Mg^2+ buffer) is reported as 233, the “Relative rate of incorporation GTP/CTP” value ([1]; Mg^2+ buffer) is reported as 400 and the “Relative rate of incorporation GTP/ATP” value ([1]; Mn^2+ buffer) is reported as 9.3. The “Relative rate of incorporation GTP/CTP” value ([1]; Mn^2+ buffer) was 32, the “Relative rate of incorporation GTP/UTP” value ([1]; Mn^2+ buffer) was 53 (Mn2+)* and the “Relative selectivity rCTP/dCTP” value ([2]; Mg^2+ buffer) was 110-150. For the same substance, the “Relative selectivity rGTP/dGTP” value ([2]; Mg^2+ buffer) was 51-67, the “Relative selectivity rUTP/dTTP” value ([2]; Mg^2+ buffer) was 22-25 and the “Relative selectivity rATP/dATP” value ([2]; Mg^2+ buffer, range of 2 experiments) was 72-83 (Mg)*. For the same substance, the “Relative selectivity rATP/dATP” value ([2]; Mn^2+ buffer) was 6-14 (Mn)*, the “Relative selectivity rCTP/dCTP” value ([2]; Mn^2+ buffer) was 4.3-5.1 and the “Relative selectivity rGTP/dGTP” value ([2]; Mn^2+ buffer) was 4.4-6.3. The “Relative selectivity rUTP/dTTP” value ([2]; Mn^2+ buffer) was 2.3-2.8, the Relative activity ([3]; 1 rNTP, dCTP, dATP, dGTP, with rGMP, Mg^2+) was “<.5” and the Relative activity ([3]; 1 rNTP, dCTP, dATP, dGTP, with rGMP, Mn^2+) was “<.5”. For the same substance, the Relative activity ([3]; 1 rNTP, dCTP, dATP, dTTP, Mg^2+) was “<.5”, the Relative activity ([3]; 1 rNTP, dCTP, dATP, dTTP, Mn^2+) was “<.5” and the Relative activity ([3]; 1 rNTP, dCTP, dATP, dUTP, Mg^2+) was “<.5”. The Relative activity ([3]; 1 rNTP, dCTP, dATP, dUTP, Mn^2+) was “<.5”, the Relative activity ([3]; 1 rNTP, dTTP, dATP, dGTP, with rGMP, Mg^2+) was “<.5” and the Relative activity ([3]; 1 rNTP, dTTP, dATP, dGTP, with rGMP, Mn^2+) was “<.5”. The Relative activity ([3]; 1 rNTP, dTTP, dCTP, dGTP, with rGMP, Mg^2+) was “<.5”, the Relative activity ([3]; 1 rNTP, dTTP, dCTP, dGTP, with rGMP, Mn^2+) was “<.5” and the Relative activity ([3]; 2 rNTPs, dATP, dGTP, rGMP, Mg^2+) was “<.5”. The Relative activity ([3]; 2 rNTPs, dATP, dGTP, rGMP, Mn^2+) was “<.5”, the Relative activity ([3]; 2 rNTPs, dATP, dTTP, Mg^2+) was “<.5” and the Relative activity ([3]; 2 rNTPs, dATP, dTTP, Mn^2+) was “<.5”. The Relative activity ([3]; 2 rNTPs, dCTP, dATP, Mg^2+) was “<.5”, the Relative activity ([3]; 2 rNTPs, dCTP, dATP, Mn^2+) was “.5-.9” and the Relative activity ([3]; 2 rNTPs, dCTP, dGTP, rGMP, Mg^2+) was “<.5”. For the same substance, the Relative activity ([3]; 2 rNTPs, dCTP, dGTP, rGMP, Mn^2+) was “<.5”, the Relative activity ([3]; 2 rNTPs, dCTP, dTTP, Mg^2+) was 2 and the Relative activity ([3]; 2 rNTPs, dCTP, dTTP, Mn^2+) was 5-7. The Relative activity ([3]; 2 rNTPs, dCTP, dUTP, Mg^2+) was 2-6, the Relative activity ([3]; 2 rNTPs, dCTP, dUTP, Mn^2+) was 3 and the Relative activity ([3]; 2 rNTPs, dTTP, dGTP, rGMP, Mg^2+) was “<.5”. The Relative activity ([3]; 2 rNTPs, dTTP, dGTP, rGMP, Mn^2+) was “<.5”, the Relative activity ([3]; 3 rNTPs, dATP, Mg^2+) was 1-2 and the Relative activity ([3]; 3 rNTPs, dATP, Mn^2+) was 1-2. The Relative activity ([3]; 3 rNTPs, dCTP, Mg^2+) was 4-9, the Relative activity ([3]; 3 rNTPs, dCTP, Mn^2+) was 15 and the Relative activity ([3]; 3 rNTPs, dGTP, rGMP, Mg^2+) was “<.5”. For the same substance, the Relative activity ([3]; 3 rNTPs, dGTP, rGMP, Mn^2+) was 1-3, the Relative activity ([3]; 3 rNTPs, dGTP, Mg^2+) was “<.5” and the Relative activity ([3]; 3 rNTPs, dGTP, Mn^2+) was “.5-2”. The Relative activity ([3]; 3 rNTPs, dTTP, Mg^2+) was 11-13, the Relative activity ([3]; 3 rNTPs, dTTP, Mn^2+) was 7-8 and the Relative activity ([3]; 3 rNTPs, dUTP, Mg^2+) was 9-11. The Relative activity ([3]; 3 rNTPs, dUTP, Mn^2+) was 10-11, the Relative activity ([3]; 4 dNTPs, rGMP, Mg^2+) was “<.5” and the Relative activity ([3]; 4 dNTPs, rGMP, Mn^2+) was “<.5”. For the same substance, the Relative activity ([3]; 4 rNTPs, Mg^2+) was 200 and the Relative activity ([3]; 4 rNTPs, Mn^2+) was 21-23.
